Results reported in publication PMC11206591, “Novel Ultrasound-Responsive Amyloid Formulation” (Pharmaceuticals, 2024).

Target: the molecule itself
Test: thioflavin T (ThT) fluorescence; 200 µM peptide in 100 mM ammonium acetate buffer pH 7, 37 °C in a thermomixer, read at 24 h and 48 h; with and without Pluronic F127 0.01% and Dox; ThT 50 µM in 20 mM Tris pH 8, 440/482 nm

B1: Receptor-interacting protein RIP 3 peptide NIYNCSGVQVGD (peptide)
peptide: NIYNCSGVQVGD
notes: The amyloids were formed from the peptide alone and also with Pluronic F127 (0.01% w/v) and/or Doxorubicin; also called 12-amino-acid peptide from the amyloidogenic region of RIP3; source: synthetic peptide, custom-synthesized from Genscript
B1: binds.
